Measurements reported in patent publication US12247058 (Bristol-Myers Squibb, dated 2025).
Non-standard residues stand in square brackets, D forms with d. Phe(4-Ac) = CC(=O)c1ccc(C[C@H](N)C(=O)O)cc1

What was measured:
Test in all cases: cell-based or functional assay
[1] = biological target: T1, human β-klotho, stably co-expressed with the Elk1-luciferase trans-reporter in HEK293 cells (HEK Luc Clone2) (human, UniProt Q86Z14 1-1044)
T1 sequence: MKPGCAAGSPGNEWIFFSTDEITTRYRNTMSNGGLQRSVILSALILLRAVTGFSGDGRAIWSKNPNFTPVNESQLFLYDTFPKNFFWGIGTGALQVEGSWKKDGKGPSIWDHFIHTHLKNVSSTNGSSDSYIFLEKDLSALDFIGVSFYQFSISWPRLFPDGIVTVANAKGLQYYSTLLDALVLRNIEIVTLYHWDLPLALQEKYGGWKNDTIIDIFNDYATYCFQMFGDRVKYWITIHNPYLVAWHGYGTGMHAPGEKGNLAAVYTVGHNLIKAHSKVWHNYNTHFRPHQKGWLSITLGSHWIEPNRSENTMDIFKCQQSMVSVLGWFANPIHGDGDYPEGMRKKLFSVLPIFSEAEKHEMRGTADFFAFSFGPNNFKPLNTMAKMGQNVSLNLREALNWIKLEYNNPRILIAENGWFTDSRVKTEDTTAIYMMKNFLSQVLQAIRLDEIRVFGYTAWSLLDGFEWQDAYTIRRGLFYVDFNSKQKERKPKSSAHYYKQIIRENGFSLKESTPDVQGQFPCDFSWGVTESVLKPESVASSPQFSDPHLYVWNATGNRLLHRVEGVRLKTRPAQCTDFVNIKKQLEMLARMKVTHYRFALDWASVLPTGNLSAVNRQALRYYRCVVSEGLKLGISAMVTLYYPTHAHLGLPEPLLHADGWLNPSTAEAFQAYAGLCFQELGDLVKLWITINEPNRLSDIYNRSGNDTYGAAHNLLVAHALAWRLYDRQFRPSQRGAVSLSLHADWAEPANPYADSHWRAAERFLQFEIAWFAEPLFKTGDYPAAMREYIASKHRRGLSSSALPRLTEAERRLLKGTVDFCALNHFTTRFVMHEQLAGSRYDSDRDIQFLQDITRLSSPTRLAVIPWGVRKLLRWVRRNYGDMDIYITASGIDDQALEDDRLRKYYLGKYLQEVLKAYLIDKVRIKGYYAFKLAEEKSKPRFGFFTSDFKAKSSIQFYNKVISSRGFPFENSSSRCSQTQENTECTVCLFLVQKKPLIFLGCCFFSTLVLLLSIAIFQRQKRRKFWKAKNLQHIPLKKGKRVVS

[2] = biological target: T1, human β-klotho, stably co-expressed …; remark: listed apart in the source
[3] = biological target: T2, human β-klotho with a C-terminal FLAG tag, stably expressed in a clonal HEK-293 cell line (human, UniProt Q86Z14 1-1044)
T2 sequence: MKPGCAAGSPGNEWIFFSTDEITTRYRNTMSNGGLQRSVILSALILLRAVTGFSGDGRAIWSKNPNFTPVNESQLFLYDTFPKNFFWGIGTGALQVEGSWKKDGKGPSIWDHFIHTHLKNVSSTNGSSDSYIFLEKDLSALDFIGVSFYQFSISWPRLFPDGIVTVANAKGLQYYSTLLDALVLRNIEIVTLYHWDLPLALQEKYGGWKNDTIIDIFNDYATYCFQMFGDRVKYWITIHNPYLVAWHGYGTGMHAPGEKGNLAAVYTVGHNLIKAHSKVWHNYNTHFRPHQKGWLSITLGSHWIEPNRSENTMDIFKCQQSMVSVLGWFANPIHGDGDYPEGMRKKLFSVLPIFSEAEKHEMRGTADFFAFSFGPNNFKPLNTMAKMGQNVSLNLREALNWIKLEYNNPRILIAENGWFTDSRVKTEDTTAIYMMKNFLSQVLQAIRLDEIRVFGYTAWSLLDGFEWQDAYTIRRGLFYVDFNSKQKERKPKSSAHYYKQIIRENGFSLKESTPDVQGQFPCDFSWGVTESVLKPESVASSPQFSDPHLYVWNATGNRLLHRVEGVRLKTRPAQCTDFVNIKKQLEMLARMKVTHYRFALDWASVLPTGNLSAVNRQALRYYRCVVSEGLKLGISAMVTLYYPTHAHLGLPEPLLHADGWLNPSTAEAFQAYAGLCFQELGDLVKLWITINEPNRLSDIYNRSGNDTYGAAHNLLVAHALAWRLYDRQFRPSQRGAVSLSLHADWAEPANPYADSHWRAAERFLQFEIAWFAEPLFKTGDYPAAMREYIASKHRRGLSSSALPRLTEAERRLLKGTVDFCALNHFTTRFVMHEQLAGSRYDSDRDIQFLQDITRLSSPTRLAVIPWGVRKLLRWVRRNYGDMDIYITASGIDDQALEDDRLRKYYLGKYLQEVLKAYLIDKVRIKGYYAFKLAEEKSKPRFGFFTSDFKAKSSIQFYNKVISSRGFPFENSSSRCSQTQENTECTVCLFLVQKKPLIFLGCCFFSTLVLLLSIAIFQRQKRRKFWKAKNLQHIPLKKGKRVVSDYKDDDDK

Geometric Mean EC50, Elk1-luciferase assay [1]: 5.9 nM
EC50 (geometric mean), 5 hour Elk1-luciferase assay [2]: 5.4 nM
pEC50, 5 hour Elk1-luciferase assay [2]: 8.27 log M
EC50 in the pERK assay [3]: 28 nM
B1: Pegylated Compound 2 (ligand)
chain: MHPIPDSSPLLQFGGQVRQRYLYTDDAQQTEAHLEIREDGTVGGAADQSPESLLQLKALKPGVIQILGVKTSRFLCQRPDGALYGSLHFDPEACSFRELLLEDGYNVY[Phe(4-Ac)](PEG about 30 kDa)SEAHGLPLHLGSGRGPARFLPLPGLPPAPPEPPGILAPQPPDVGSSDPLSMVEPSQGRSPSYAS
